Consider 1 molecule from patent publication US20250320288A1 (ELIXIRON IMMUNOTHERAPEUTICS HONG KONG, published 2025).

The target in the experiment is recombinant human IFN-γ (human). Kind of experiment: cell-based or functional assay.
Sequence of recombinant human IFN-γ (human) (P01579 24-161): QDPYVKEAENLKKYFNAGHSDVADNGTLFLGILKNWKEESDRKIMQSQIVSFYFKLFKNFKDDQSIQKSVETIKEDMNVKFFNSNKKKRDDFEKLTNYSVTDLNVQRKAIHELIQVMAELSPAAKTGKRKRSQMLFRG

B1: EI-001 (2A6Q), human monoclonal anti-IFN-γ antibody (antibody, human IgG1, lambda, V domains shown)
VH: EVQLVESGGGLVKPGDSLTVSCVASGFTFSNYFIHWVRQAPGKGLEWVATISGRTKYMFYSDSLRGRFTVSRDNAQNSVYLHMSSLRGEDTALYYCVRGYDHSDSNSAADLLHWGRGTLVTVSS
VL: NFMLTQPLSVSGYPGKTIVISCVRSSGSVASHYVQWFQQRPGSAPAMVIYEDSHRPSGIPDRFSGSVDASSNSASLTISGLKTEDEADYFCQSYYGNNQVLFGGGTKLTVLG
B1: the “EC50 of EI-001 restoring viability of human primary melanocytes cultured with 30 ng/mL IFN-γ (CellTiter-Glo, 72 hrs)” value worked out at 0.00521 mg/L and the “EC50 restoring melanogenesis (melanin content, absorbance at 470 nm) of human primary melanocytes cultured with 20 ng/mL IFN-γ for 7 days” value was found to be 0.129 mg/L.
